Assay results published in patent US20050009847A1, “Compounds and methods for increasing neurogenesis” (published 2005).

Target: alpha-subunit of the stimulatory G protein (Gs), mouse (mouse, UniProt P63094)
Test: cell-based or functional assay

B1: Cholera toxin from Vibrio Cholerae (other)
chain: NDDKLYRADSRPPDEIKQSGGLMPRGQSEYFDRGTQMNINLYDHARGTQTGFVRHDDGYVSTSISLRSAHLVGQTILSGHSTYYIYVIATAPNMFNVNDVLGAYSPHPDEQEVSALGGIPYSQIYGWYRVHFGVLDEQLHRNRGYRDRYYSNLDIAPAADGYGLAGFPPEHRAWREEPWIHHAPPGCGNAPRSSMSNTCDEKTQSLGVKFLDEYQSKVKRQIFSGYQSDIDTHNRIKDEL
Which “cAMP, fold induction over vehicle, adult mouse neural stem cells” value does the source give for B1 here?
Its value is 3.1 fold induction.
